Results published in patent CN117866092A (BEIJING KENUO XINCHENG TECH CO LTD, dated 2024).

How the values were obtained:
[1] = target: T1, 细胞表面人CD73蛋白 (human CD73 on the cell surface) (human, UniProt P21589 27-549); test: flow cytometry on BXPC-3 cells, FITC anti-human IgG
T1 construct: whole, on cells; Endogenous CD73 on human tumour cell lines; also called 细胞表面CD73; CD73 on BXPC-3, SKOV-3, A375, MDA-MB-231 and A431 cells
T1 sequence (looked up): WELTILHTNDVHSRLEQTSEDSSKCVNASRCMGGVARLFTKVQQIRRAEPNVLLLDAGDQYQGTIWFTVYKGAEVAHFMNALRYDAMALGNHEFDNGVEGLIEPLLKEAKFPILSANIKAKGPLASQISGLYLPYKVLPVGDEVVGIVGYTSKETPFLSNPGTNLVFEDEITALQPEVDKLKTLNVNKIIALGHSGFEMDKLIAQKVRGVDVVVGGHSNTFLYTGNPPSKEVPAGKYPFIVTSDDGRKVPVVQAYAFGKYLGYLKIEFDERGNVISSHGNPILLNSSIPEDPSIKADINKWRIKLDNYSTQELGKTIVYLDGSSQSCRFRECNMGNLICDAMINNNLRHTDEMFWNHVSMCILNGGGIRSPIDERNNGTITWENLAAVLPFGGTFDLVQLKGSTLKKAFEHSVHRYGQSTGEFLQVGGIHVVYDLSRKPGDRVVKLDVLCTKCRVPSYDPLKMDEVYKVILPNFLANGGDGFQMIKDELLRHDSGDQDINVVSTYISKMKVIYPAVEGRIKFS

[2] = target: T2, 人CD73-his重组蛋白(序列号:NM_002526.3，27-547aa) (human, UniProt P21589 27-547); test: BLI (Octet QKe), antibody captured on AHC sensor, 60 nM CD73-his as analyte, 1:1 fit
T2 construct: range 27-547; Transiently expressed in eukaryotic cells; also called rhCD73-his; 重组人CD73-his; not shown: his tag
T2 sequence (looked up): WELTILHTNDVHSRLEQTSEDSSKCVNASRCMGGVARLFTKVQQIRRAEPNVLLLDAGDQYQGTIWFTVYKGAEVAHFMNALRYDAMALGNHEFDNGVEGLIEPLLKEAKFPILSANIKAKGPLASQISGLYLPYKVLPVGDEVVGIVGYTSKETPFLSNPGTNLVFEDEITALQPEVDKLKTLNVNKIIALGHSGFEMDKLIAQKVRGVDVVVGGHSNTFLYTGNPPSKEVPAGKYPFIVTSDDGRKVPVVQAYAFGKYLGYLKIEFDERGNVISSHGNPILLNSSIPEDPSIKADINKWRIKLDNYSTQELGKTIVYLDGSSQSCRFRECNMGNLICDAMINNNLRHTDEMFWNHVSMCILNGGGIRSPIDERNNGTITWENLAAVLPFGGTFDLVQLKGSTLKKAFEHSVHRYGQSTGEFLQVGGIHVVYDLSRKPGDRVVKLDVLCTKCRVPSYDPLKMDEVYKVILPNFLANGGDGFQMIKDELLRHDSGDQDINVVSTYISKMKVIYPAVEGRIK

EC50 [1]: 0.242 nM
Kd [2]: 0.635 nM
koff [2]: 0.000105 s⁻¹
kon [2]: 165000 M⁻¹ s⁻¹
B1: MEDI9447 (antibody, V domains shown)
VH: EVQLLESGGGLVQPGGSLRLSCAASGFTFSSYAYSWVRQAPGKGLEWVSAISGSGGRTYYADSVKGRFTISRDNSKNTLYLQMNSLRAEDTAVYYCARLGYGRVDEWGRGTLVTVSS
VL: QSVLTQPPSASGTPGQRVTISCSGSLSNIGRNPVNWYQQLPGTAPKLLIYLDNLRLSGVPDRFSGSKSGTSASLAISGLQSEDEADYYCATWDDSHPGWTFGGGTKLTVLG
